Entries after “also recorded” stand apart in the source; their conditions may differ.

The term stoichiometry N denotes a count of units in the complex or per binding partner.

T1: FZD6 TM4 synthetic peptide (human)
T1 construct: flanking lysines added to the transmembrane stretch; transmembrane helix 4 of human FZD6, Uniprot ID O60353; Whole peptide as printed: [residues removed]; source: synthetic peptide (Pepscan Therapeutics or Fmoc synthesis, HPLC purified)
T1 peptide: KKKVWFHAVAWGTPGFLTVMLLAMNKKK

B1: FZD6 TM5 synthetic peptide (peptide)
peptide: KKLDASRYFVLLPLCLCVFVGLSLLLAGIISKKK
notes: flanking lysines added to the transmembrane stretch; transmembrane helix 5 of human FZD6, Uniprot ID O60353; source: synthetic peptide (Pepscan Therapeutics or Fmoc synthesis, HPLC purified)
B2: Frizzled 6 (FZD6), wild type, expressed as V5-FZD6-mCherry and as FZD6-GFP (receptor, human, UniProt O60353 19-706, looked up)
chain: HSLFTCEPITVPRCMKMAYNMTFFPNLMGHYDQSIAAVEMEHFLPLANLECSPNIETFLCKAFVPTCIEQIHVVPPCRKLCEKVYSDCKKLIDTFGIRWPEELECDRLQYCDETVPVTFDPHTEFLGPQKKTEQVQRDIGFWCPRHLKTSGGQGYKFLGIDQCAPPCPNMYFKSDELEFAKSFIGTVSIFCLCATLFTFLTFLIDVRRFRYPERPIIYYSVCYSIVSLMYFIGFLLGDSTACNKADEKLELGDTVVLGSQNKACTVLFMLLYFFTMAGTVWWVILTITWFLAAGRKWSCEAIEQKAVWFHAVAWGTPGFLTVMLLAMNKVEGDNISGVCFVGLYDLDASRYFVLLPLCLCVFVGLSLLLAGIISLNHVRQVIQHDGRNQEKLKKFMIRIGVFSGLYLVPLVTLLGCYVYEQVNRITWEITWVSDHCRQYHIPCPYQAKAKARPELALFMIKYLMTLIVGISAVFWVGSKKTCTEWAGFFKRNRKRDPISESRRVLQESCEFFLKHNSKVKHKKKHYKPSSHKLKVISKSMGTSTGATANHGTSAVAITSHDYLGQETLTEIQTSPETSMREVKADGASTPRLREQDCGEPASPAASISRLSGEQVDGKGQAGSVSESARSEGRISPKSDITDTGLAQSNNLQVPSSSEPSSLKGSTSLLVHPVSGVRKEQGGGCHSDT
notes: Frizzled 6 (FZD6), human, Uniprot ID O60353; Two differently tagged copies of the same receptor are tested against each other, so they are written as one molecule; The FCS experiment used FZD6-GFP alone; also called FZD6 wt; source: HEK293, transiently transfected (Lipofectamine 2000), in living cells; not shown: V5 (on the crosslinked copy), N-terminal, kept; mCherry (on the crosslinked copy), …
B3: FZD6-GFP: GFP-tagged human FZD6 receptor construct (protein)
chain: B2 chain
modifications: left off: V5 (on the crosslinked copy), N-terminal, kept | mCherry (on the crosslinked copy), C-terminal, kept | GFP (on the other, mobile copy), C-terminal, kept
notes: GFP-tagged human FZD6 receptor construct

Series [1] concerns ERK1/2 phosphorylation in HEK293 cells. In words: P-ERK1/2 immunoblot, HEK293 cells expressing SNAP-FZD6 constructs. Type of series: cell-based. The conditions noted are these: HEK293; C59 5 µM overnight. The method, then: Fig. 6 Relationship between FZD6 dimerization and phosphorylation of ERK1/2. a Mouse lung epithelial (MLE-12) cells were stimulated with WNT-5A (300 ng ml^−1) for 0, 2.5, 5, 10, 20 min. Cell lysates were analyzed for P-ERK1/2 and β-actin by immunoblotting. Additional information in Supplementary Fig. 6. b Bar graph summarizes three independent experiments. Densitometry data were normalized to the unstimulated control. […] Additional information in Supplementary Fig. 6. SNAP-FZD6 wt- and SNAP-FZD6 dimer mutant-induced ERK1/2 phosphorylation in the absence e and presence f of the porcupine inhibitor C59 (5 µM, overnight) were probed by immunoblotting for the SNAP-tag, P-ERK1/2, total ERK1/2 and β-actin. g The bar graph summarizes densitometry data of P-ERK1/2 normalized to total ERK1/2 from 6 different experiments. P = 0.0005; F (2, 15) = 13.08. ***P < 0.001. Empty vector transfection was used as mock. h Increasing amounts of plasmid of either SNAP-FZD6 wt or SNAP-FZD6 dimer mutant in the presence of C59 show a dose-dependent increase in P-ERK1/2 only with the dimer mutant. Data from three independent experiments for the dimer mutant were fit to a linear least-squares model (slope = 0.40 ± 0.10; R ^2 = 0.5943) and this line is shown superimposed. […] This dissociation-dependent activation can be evoked by agonist (WNT^high) or mutation of the dimer interface (symbolized by red stars). WNT^low conditions can be achieved in the presence of C59, which reduces FZD6 wt signaling
MLE-12 or HEK293 cells (ATCC) were plated in a 24- or 48-well plate at a density of 100,000 or 50,000 cells/well, respectively. After 24 h, cells were transfected using Lipofectamine 2000 according to the manufacturer’s instructions. Cells were stimulated (24 h post-transfection) with 300 ng ml^−1 recombinant carrier-free WNT-5A (CF WNT-5A; R&D Systems). Stimulation was stopped by the addition of lysis buffer (1% NP-40, 150 mM NaCl, 50 mM Tris/HCl pH 8). Lysates were sonicated and analyzed by 7.5 or 10% Mini-PROTEAN TGX precast polyacrylamide gels (Bio-Rad) and transferred to PVDF membranes using the Trans-Blot Turbo system (Bio-Rad). After blocking with 5% milk or BSA in TBS-T, membranes were incubated with primary antibodies in blocking buffer: mouse anti-β-actin (1:30,000; Sigma #A5441), rabbit anti-FZD6 (1:1000; NovusBio #NBP1-00830), rabbit anti-Phospho-p44/42 MAPK (ERK1/2) (Thr202/Tyr204) (1:1000; Cell Signaling Technology #9101 L), rabbit anti-p44/42 MAPK (ERK1/2) (1:1000; Cell Signaling Technology #9102), rabbit anti-Phospho-C-RAF (Ser338) (1:1000; Cell Signaling Technology #56A6), rabbit anti-SNAP tag (1:1000, New England Biolabs #P9310S), and rabbit anti-HA (1:4000, abcam #ab9110) overnight at 4 °C. Proteins were detected with horseradish peroxidase-conjugated secondary antibodies (goat anti-rabbit and goat anti-mouse (Pierce)) and Clarity Western ECL Blotting Substrate (Bio-Rad). All uncropped immunoblots can be found in the Supplementary Information.
(In general: A western blot detects proteins with antibodies after separation by electrophoresis.)

A further series deals with porcupine. The conditions noted are these: cited from earlier work.
Series [2] has as its target B2. In words: cell-based or functional assay.
The target of series [3] is T1, FZD6 TM4 synthetic peptide. In words: SEC; Superdex 30 analytical column, triple distilled water + 0.01% DDM, room temperature; 500 µM of each peptide, incubated together for 2 h. Particulars: both partners purified.
Series [4] deals with the molecule itself. The series is described as follows: fluorescence cross-correlation spectroscopy (FCCS); living HEK293 cells co-expressing FZD6-GFP and V5-FZD6-mCherry at low levels (10-1000 receptors per µm^2), no crosslinking; dynamic measurements before and after WNT-5A (300 ng ml^-1).
In series [5] the test system is FZD6–FZD6 dimer. The series is described as follows: dcFRAP of V5-FZD6-mCherry/FZD6-GFP (FZD6 dimerization). Type of series: cell-based, human. The method, boiled down: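 Live cells co-expressing V5-FZD6-mCherry and FZD6-GFP, surface V5 tag crosslinked with biotin-anti-V5 plus avidin in BE buffer at RT. Membrane areas photobleached, recovery imaged (488/561 nm) over 100 s; mobile fraction from background/bleach-corrected, pre-bleach-normalized intensity at 85-101 s. Cells with <40% crosslink-induced mobility reduction excluded.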

In series [6] the test system is FZD6–FZD6 dimer. The series is described as follows: dynamic FCCS of V5-FZD6-mCherry/FZD6-GFP. Type of series: cell-based, human. The conditions noted are these: HEK293; representative cell; G cc normalized to green auto-correlation amplitude; prior to stimulation. The protocol:
HEK293 cells were grown over-night in Lab-Tek eight-well chamber-glass bottom slides (Nunc, Thermo Scientific, Langensbold, Germany) coated with matrigel. Data were acquired in 10 s intervals. Collection intervals containing abnormal fluorescence peaks (presumably resulting from aggregates or ROIs where the overall fluorescence was decaying, putatively due to membrane movements) were discarded from the overall analysis. The total included measurements time ranged from 20 to 80 s per cell. Measurements were only undertaken on cells where the fluorescence was well localized to the cell surface membrane, as judged by visual inspection in the wide-field and confocal mode. Autofluorescence, as well as fluorescence from both GFP and mCherry in the intracellular region was negligible. The number of fluorescent receptors assessed in each experiment varied from 10–1000 receptors per µm^2 in each HEK293 cell.
Dynamic FCCS measurements of WNT-dependent dissociation and re-association of FZD (Fig. 5c–e) were performed on an FCS/FCCS-equipped Zeiss 780 confocal microscope (Zeiss, Jena, Germany). The instrument details were the same as those of the Confocor 3 described above, with the exception that 561 nm excitation was used for excitation of mCherry, that GFP emission was detected from 500 to 550 nm, and that mCherry emission was detected from 600 to 690 nm. Experiments on cells were performed as described above, with each measurement point consisting of 3–6 measurements of 10 s each. […]
Assuming that M is FZD6-GFP (green) and N is FZD6-mCherry (red) and that all FZD6 form dimers, then the probability of finding a green–red FZD6 dimer is pgr=2×M×N/(M+N)(M+N-1)≈2×M×N/M+N^2=(2cgg+cgr)(2crr+cgr)/2cgg+cgr+crr^2 , where c gg, c gr, and c rr are the corresponding concentrations of the only green FZD6 dimers, the red and green FZD6 dimers and the only red FZD6 dimers. […] From the experiments, we determine the concentrations for c gg, c gr and c rr and compare the concentrations c gr with the c′gr for each cell to get an estimation of how close the model is to experimental data: cgr/c′gr=2cgr×(cgg+cgr+crr)/((2cgg+cgr)(2crr+cgr)) Analysis of the dynamic FCCS measurements of WNT-dependent dissociation and re-association of FZD6: Auto-correlation and cross-correlation curves were analyzed as described above and the amplitudes G g(0)−1, G r(0)−1, and G cc(0)−1 from each of the more than 300 measurements of 10 s duration were estimated by fitting to theoretical models. […]
With the settings described above for detection of emission, the crosstalk from the GFP channel to the mCherry channel, defined as the intensity detected in the mCherry channel divided by the intensity detected in the GFP channel, I r/I g, for a cell expressing only FZD-GFP, was 0.051 or 5.1 %. […]

In series [7] the test system is FZD6–FZD6 dimer. The series is described as follows: ratiometric FRET of C-terminally tagged FZD6 constructs. Type of series: cell-based, human.

On to `Cc1cc(-c2ccc(CC(=O)Nc3ccc(-c4cccnc4)cc3)cc2)ccn1` [C59, 2-[4-(2-Methylpyridin-4-yl)phenyl]-N-[4-(pyridin-3-yl)phenyl]acetamide], for which the “effect of C59 on FZD6 wt-induced P-ERK1/2” value in series [1] was “reduced to basal”. Moreover, the “effect on endogenous WNT secretion” value in the series on porcupine is “blocks secretion of WNT proteins; also recorded: abrogates endogenous WNT secretion”.

As for KKLDASRYFVLLPLCLCVFVGLSLLLAGIISKKK [HA-tagged TM5 minigene of FZD6], the “basal P-ERK1/2 level (immunoblot) in MLE-12 cells expressing the TM5 minigene, which interferes with the FZD6-FZD6 dimer; the TM1 minigene had no effect” value in series [2] stood at 56.7%.

Turning to B1, the binding result in series [3] is given as “binds”.

As for B2, the “stoichiometry N” value in series [4] is 2.

Consider B3, for which the “mobile fraction of FZD6-GFP before CL” value with FZD6–FZD6 dimer [5] (HEK293, basal, without biotinylated anti-V5/avidin crosslinking, 85–101 s, mean ± s.e.m., N = 21 ROIs) turned out to be 80.8 ± 2.0%. For the same molecule, in the series on FZD6–FZD6 dimer [5] (HEK293, with biotinylated anti-V5/avidin crosslinking, 85–101 s, mean ± s.e.m., N = 31 ROIs), the “mobile fraction of FZD6-GFP after CL” value was found to be 70.7 ± 2.4%. Also, in the series with FZD6–FZD6 dimer [5] (extrapolated from varying expression ratios, mCherry to GFP 1:1), the dimeric fraction result was “around 25%”. Also, the “red molecules also green prior to WNT-5A” value with FZD6–FZD6 dimer [6] was 11%. The “energy transfer between fluorophores (FRET)” value in the series with FZD6–FZD6 dimer [7] was “not able to detect energy transfer”.

The record behind these values is publication PMC5548745, “Agonist-induced dimer dissociation as a macromolecular step in G protein-coupled receptor signaling” (Nature Communications, 2017).
